The text below walks through data of article doi:10.1101/2025.07.27.667015v3 (biorxiv, 2025).

The target in data set [1] is yMGL (Yarrowia lipolytica, UniProt Q6CB42, S333A). Nature of the data set: OpenSPR, protein immobilised on NTA chip. The data set is classed as binding.
Data set [2] has as its target yMGL (Yarrowia lipolytica, UniProt Q6CB42). As to the kind of experiment: OpenSPR, protein immobilised on NTA chip. The data set is classed as binding.
The test system of the next data set is CSCC[C@H](N)C(=O)O. Nature of the data set: purified protein. As to conditions: saturating PLP (5 μM), 50 mM Tris-HCl pH 8.0, 20 °C.

For the compound `Cc1ncc(COP(=O)(O)O)c(C=O)c1O` [PLP], the figures for the Kd at yMGL [1] and on yMGL [2] were 942 µM and 33.1 µM, respectively.
On to “yMGL-ΔCTD (Yarrowia lipolytica CLIB122; DEL253-380)”, for which, in the data set on CSCC[C@H](N)C(=O)O, the Michaelis constant (Km) – broadly, the concentration of substrate that gives half-maximal velocity – was determined as 750 ± 10 µM and the turnover number (kcat) (in general, the maximal rate divided by the concentration of active sites) was 0.04 ± 0.00 s⁻¹.
With yMGL (Yarrowia lipolytica CLIB122), in the data set on CSCC[C@H](N)C(=O)O, the Michaelis-Menten constant (Km) came out at 1500 ± 10 µM and the kcat was 0.06 ± 0.00 s⁻¹.
